Test results taken from patent US20170189519A1 (Janssen / Centocor, published 2017).

Key:
189E10 [1] = biological target: T1, 189E10 (influenza A H1N1 A/Brisbane/59/2007); experiment: ratio against parental SEQ ID NO: 6
262B9 [2] = biological target: T2, 262B9 (influenza A H1N1 A/Brisbane/59/2007); experiment: ratio against parental SEQ ID NO: 6
146G7 [3] = biological target: T3, 146G7 (influenza A H1N1 A/Brisbane/59/2007); experiment: ratio against parental SEQ ID NO: 6
189E10 [4] = biological target: T1, 189E10; experiment: ELISA signal over HTRF expression signal
262B9 [5] = biological target: T2, 262B9; experiment: ELISA signal over HTRF expression signal
146G7 [6] = biological target: T3, 146G7; experiment: ELISA signal over HTRF expression signal
189E10 [7] = biological target: T1, 189E10; experiment: ELISA, coated CR6261, P. pastoris medium
262B9 [8] = biological target: T2, 262B9; experiment: ELISA, coated CR6261, P. pastoris medium
146G7 [9] = biological target: T3, 146G7; experiment: ELISA, coated CR6261, P. pastoris medium
s127H1-t2-cl18long = s127H1-t2-cl18long (influenza A virus H1N1 …, UniProt A8C8J4 18-529)

Row | Binder | fold increase of ratio over parental H1 mini-HA (189E10 [1]) | fold increase of ratio over parental H1 mini-HA (262B9 [2]) | fold increase of ratio over parental H1 mini-HA (146G7 [3]) | ratio of CR6261 binding signal to HTRF signal (189E10 [4]) | ratio of CR6261 binding signal to HTRF signal (262B9 [5]) | ratio of CR6261 binding signal to HTRF signal (146G7 [6]) | CR6261 binding signal (189E10 [7]) | CR6261 binding signal (262B9 [8]) | CR6261 binding signal (146G7 [9]) | EC50 (s127H1-t2-cl18long)
1 | CR6261 (antibody, V domains shown) VH: EVQLVESGAEVKKPGSSVKVSCKASGGPFRSYAISWVRQAPGQGPEWMGGIIPIFGTTKYAPKFQGRVTITADDFAGTVYMELSSLRSEDTAMYYCAKHMGYQVRETMDVWGKGTTVTVSS VL: QSVLTQPPSVSAAPGQKVTISCSGSSSNIGNDYVSWYQQLPGTAPKLLIYDNNKRPSGIPDRFSGSKSGTSATLGITGLQTGDEANYYCATWDRRPTAYVVFGGGTKLTVLG [CR6261, listing 1 of 2 here] | 1.74 | 1.66 | 1.71 | 10.3 | 9.89 | 10.2 | 189000 | 94700 | 534000 | 
2 | CR6261 (antibody, V domains shown) VH: EVQLVESGAEVKKPGSSVKVSCKASGGPFRSYAISWVRQAPGQGPEWMGGIIPIFGTTKYAPKFQGRVTITADDFAGTVYMELSSLRSEDTAMYYCAKHMGYQVRETMDVWGKGTTVTVSS VL: QSVLTQPPSVSAAPGQKVTISCSGSSSNIGNDYVSWYQQLPGTAPKLLIYDNNKRPSGIPDRFSGSKSGTSATLGITGLQTGDEANYYCATWDRRPTAYVVFGGGTKLTVLG [CR6261, listing 2 of 2 here] |  |  |  |  |  |  |  |  |  | 0.139 µg/mL
